From publication PMC11203576 come the findings set out here.

What all share (experiment): SPR; Biacore T200; […] (0.01 M HEPES, 0.15 M NaCl, 3 mM EDTA, 0.05% surfactant P20, […]
Assay [1] has as its target SARS-CoV-2 spike protein RBD, Omicron variant, sfGFP fusion (SARS-CoV-2) (UniProt P0DTC2).
For assay [2], the target named is SARS-CoV-2 spike protein RBD, Alpha variant, sfGFP fusion (SARS-CoV-2) (UniProt P0DTC2).
For assay [3], the target named is SARS-CoV-2 spike protein RBD, Delta variant, sfGFP fusion (SARS-CoV-2) (UniProt P0DTC2).

In assay [1], “Recombinant Microcystis viridis NIES-102 lectin (rMVL) (from UniProt Q9RHG4 1-114) (natural protein)” yielded a Kd of 2730 nM. That is a single-digit micromolar value.

For Jacalin (natural protein), the Kd stood at 320 nM in assay [2], 339 nM in assay [3] and 478 nM in assay [1].
